T1: pSer13-Cdc37 (human Cdc37 expressed in Sf9 cells, phosphorylated on Ser13) (human, UniProt Q16543 1-378, phosphoserine at 13)
T1 construct: human Cdc37 (p50), phosphorylated on Ser13 in the insect cells; also called p50; Sf9-expressed Cdc37; source: Sf9 cells, baculovirus; purified in the C-K and H-C-K complexes with His6-Cdk4; free Cdc37 obtained as a by-product of the H-C-K complex purification
T1 sequence (looked up): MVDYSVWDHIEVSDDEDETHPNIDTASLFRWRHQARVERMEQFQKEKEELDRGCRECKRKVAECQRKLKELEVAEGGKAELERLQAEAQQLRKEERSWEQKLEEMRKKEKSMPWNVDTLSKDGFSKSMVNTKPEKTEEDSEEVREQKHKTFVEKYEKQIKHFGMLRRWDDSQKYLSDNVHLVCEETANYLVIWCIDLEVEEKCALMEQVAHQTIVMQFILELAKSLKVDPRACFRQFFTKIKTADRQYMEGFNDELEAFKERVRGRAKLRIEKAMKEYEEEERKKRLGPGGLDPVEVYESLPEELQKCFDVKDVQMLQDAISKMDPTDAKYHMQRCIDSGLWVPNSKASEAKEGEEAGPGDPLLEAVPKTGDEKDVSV

T2: Cdc37 (human, Sf9-expressed) dephosphorylated with λ-phosphatase (human, UniProt Q16543 1-378)
T2 construct: human Cdc37 (p50), Ser13 dephosphorylated in vitro by λPP; Same construct as m2 after treatment with λPP; also called dephosphorylated Cdc37; Cdc37 in dephosphorylated C-K or H-C-K complex; source: Sf9 cells, baculovirus; purified in the C-K and H-C-K complexes, then dephosphorylated with λ-phosphatase (NEB)
T2 sequence (looked up): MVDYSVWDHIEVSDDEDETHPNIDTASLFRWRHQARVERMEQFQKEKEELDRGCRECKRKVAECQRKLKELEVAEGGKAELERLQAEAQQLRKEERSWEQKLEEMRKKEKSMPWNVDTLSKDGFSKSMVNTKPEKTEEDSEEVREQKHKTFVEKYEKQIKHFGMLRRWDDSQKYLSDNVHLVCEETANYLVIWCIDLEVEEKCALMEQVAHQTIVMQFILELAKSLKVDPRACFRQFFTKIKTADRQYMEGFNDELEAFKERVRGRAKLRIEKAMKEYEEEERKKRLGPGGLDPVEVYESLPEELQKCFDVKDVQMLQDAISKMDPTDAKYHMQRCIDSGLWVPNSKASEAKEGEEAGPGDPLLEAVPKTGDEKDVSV


Experiments:
[1] = molecular target: T1, pSer13-Cdc37 (human Cdc37 expressed in …); assay: co-purification (His6 affinity); human Cdc37 and N-terminally His6-tagged Cdk4 co-expressed in Sf9 cells by baculovirus; complexes purified via the His6 tag on Cdk4; Coomassie-stained SDS-PAGE; details: partners not purified
[2] = molecular target: T2, Cdc37 (human, Sf9-expressed) …; assay: SEC; purified C-K complex incubated with or without λPP (1:10) for 1 hr at room temperature; Superose 6 HR10/30 in 50 mM Tris pH 7.5, 10 mM KCl, 10 mM MgCl2, 150 mM NaCl, 1 mM EDTA, 3 mM DTT; 1 ml fractions probed by Western blot; details: both partners purified
full-length human Hsp90α = molecular target: T3, full-length human Hsp90α (human, UniProt P07900 1-732); assay: pull-down; GST-PP5 on glutathione Sepharose with Cdc37 or CK2-phosphorylated Cdc37 preincubated with Hsp90α for 1 hr; 4°C, 2 hr; 50 mM HEPES pH 7.5, 150 mM NaCl, 0.1% NP40, BSA; PP5 dephosphorylates Cdc37 during the incubation; details: both partners purified
T3 construct: human Hsp90α

Row | Binder | binding result [1] | binding result [2] | binding result (full-length human Hsp90α)
1 | His6-tagged Cdk4 (enzyme, human, UniProt P11802 1-303, looked up, Cdk4, Cdc37/Hsp90-dependent protein kinase; also called K (in C-K and H-C-K); source: Sf9 cells, baculovirus, co-expressed with human Cdc37; purified via the His6 tag as C-K and H-C-K complexes; not shown: His6, N-terminal, kept) MATSRYEPVAEIGVGAYGTVYKARDPHSGHFVALKSVRVPNGGGGGGGLPISTVREVALLRRLEAFEHPNVVRLMDVCATSRTDREIKVTLVFEHVDQDLRTYLDKAPPPGLPAETIKDLMRQFLRGLDFLHANCIVHRDLKPENILVTSGGTVKLADFGLARIYSYQMALTPVVVTLWYRAPEVLLQSTYATPVDMWSVGCIFAEMFRRKPLFCGNSEADQLGKIFDLIGLPPEDDWPRDVSLPRGAFPPRGPRPVQSVVPEMEESGAQLLLEMLTFNPHKRISAFRALQHSYLHKDEGNPE | binds | binds | 
2 | pSer13-Cdc37 (E. coli-expressed Cdc37 phosphorylated in vitro with CK2) (natural protein, human, UniProt Q16543 1-378, looked up, phosphoserine at 13, human Cdc37 (p50), phosphorylated on Ser13 by CK2 in vitro; also called phosphorylated Cdc37; pCdc37; source: E. coli, purified, phosphorylated in vitro with CK2 (Promega), further purified on Resource Q) MVDYSVWDHIEVSDDEDETHPNIDTASLFRWRHQARVERMEQFQKEKEELDRGCRECKRKVAECQRKLKELEVAEGGKAELERLQAEAQQLRKEERSWEQKLEEMRKKEKSMPWNVDTLSKDGFSKSMVNTKPEKTEEDSEEVREQKHKTFVEKYEKQIKHFGMLRRWDDSQKYLSDNVHLVCEETANYLVIWCIDLEVEEKCALMEQVAHQTIVMQFILELAKSLKVDPRACFRQFFTKIKTADRQYMEGFNDELEAFKERVRGRAKLRIEKAMKEYEEEERKKRLGPGGLDPVEVYESLPEELQKCFDVKDVQMLQDAISKMDPTDAKYHMQRCIDSGLWVPNSKASEAKEGEEAGPGDPLLEAVPKTGDEKDVSV |  |  | binds
3 | Cdc37 (E. coli-expressed, unphosphorylated) (natural protein, human, UniProt Q16543 1-378, looked up, human Cdc37 (p50), not phosphorylated; also called WT-Cdc37; nonphosphorylated Cdc37; source: E. coli, purified) MVDYSVWDHIEVSDDEDETHPNIDTASLFRWRHQARVERMEQFQKEKEELDRGCRECKRKVAECQRKLKELEVAEGGKAELERLQAEAQQLRKEERSWEQKLEEMRKKEKSMPWNVDTLSKDGFSKSMVNTKPEKTEEDSEEVREQKHKTFVEKYEKQIKHFGMLRRWDDSQKYLSDNVHLVCEETANYLVIWCIDLEVEEKCALMEQVAHQTIVMQFILELAKSLKVDPRACFRQFFTKIKTADRQYMEGFNDELEAFKERVRGRAKLRIEKAMKEYEEEERKKRLGPGGLDPVEVYESLPEELQKCFDVKDVQMLQDAISKMDPTDAKYHMQRCIDSGLWVPNSKASEAKEGEEAGPGDPLLEAVPKTGDEKDVSV |  |  | binds
